Reference: article PMC5086636 (Toxins, 2016)
Several values for one entry are separate records, joined by “and”; a condition that tells them apart may be missing. Identical values can stand only once.

Key:
[1] = biological target: Synaptotagmin-II 8-61 (UniProt P29101); experiment: ITC; settings: cited from earlier work
[2] = biological target: Synaptotagmin-II 40-60, P29101
[3] = biological target: T1, Syt-II_(40-60) peptide (amino acid residues 40-60 of the mouse synaptotagmin protein) (mouse); experiment: BLI; Octet Red; […]; 25 °C; PBS + 0.02% Tween 20, 1% BSA, 0.05% azide; […]; settings: one partner purified
T1 peptide: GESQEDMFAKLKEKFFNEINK

Chain of Synaptotagmin-II 40-60, P29101 (P29101 40-60): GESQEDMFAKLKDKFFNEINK
Chain of Synaptotagmin-II 8-61 (P29101 8-61): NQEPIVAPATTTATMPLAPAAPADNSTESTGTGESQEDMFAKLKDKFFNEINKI

## BoNT/B 858-1291 (from UniProt P10844)
[1]
  Kd: 34 nM

B1: BoNT/B, P10844 (protein)
chain: PVTINNFNYNDPIDNNNIIMMEPPFARGTGRYYKAFKITDRIWIIPERYTFGYKPEDFNKSSGIFNRDVCEYYDPDYLNTNDKKNIFLQTMIKLFNRIKSKPLGEKLLEMIINGIPYLGDRRVPLEEFNTNIASVTVNKLISNPGEVERKKGIFANLIIFGPGPVLNENETIDIGIQNHFASREGFGGIMQMKFCPEYVSVFNNVQENKGASIFNRRGYFSDPALILMHELIHVLHGLYGIKVDDLPIVPNEKKFFMQSTDAIQAEELYTFGGQDPSIITPSTDKSIYDKVLQNFRGIVDRLNKVLVCISDPNININIYKNKFKDKYKFVEDSEGKYSIDVESFDKLYKSLMFGFTETNIAENYKIKTRASYFSDSLPPVKIKNLLDNEIYTIEEGFNISDKDMEKEYRGQNKAINKQAYEEISKEHLAVYKIQMCKSVKAPGICIDVDNEDLFFIADKNSFSDDLSKNERIEYNTQSNYIENDFPINELILDTDLISKIELPSENTESLTDFNVDVPVYEKQPAIKKIFTDENTIFQYLYSQTFPLDIRDISLTSSFDDALLFSNKVYSFFSMDYIKTANKVVEAGLFAGWVKQIVNDFVIEANKSNTMDKIADISLIVPYIGLALNVGNETAKGNFENAFEIAGASILLEFIPELLIPVVGAFLLESYIDNKNKIIKTIDNALTKRNEKWSDMYGLIVAQWLSTVNTQFYTIKEGMYKALNYQAQALEEIIKYRYNIYSEKEKSNINIDFNDINSKLNEGINQAIDNINNFINGCSVSYLMKKMIPLAVEKLLDFDNTLKKNLLNYIDENKLYLIGSAEYEKSKVNKYLKTIMPFDLSIYTNDTILIEMFNKYNSEILNNIILNLRYKDNNLIDLSGYGAKVEVYDGVELNDKNQFKLTSSANSKIRVTQNQNIIFNSVFLDFSVSFWIRIPKYKNDGIQNYIHNEYTIINCMKNNSGWKISIRGNRIIWTLIDINGKTKSVFFEYNIREDISEYINRWFFVTITNNLNNAKIYINGKLESNTDIKDIREVIANGEIIFKLDGDIDRTQFIWMKYFSIFNTELSQSNIEERYKIQSYSEYLKDFWGNPLMYNKEYYMFNAGNKNSYIKLKKDSPVGEILTRSKYNQNSKYINYRDLYIGEKFIIRRKSNSQSINDDIVRKEDYIYLDFFNLNQEWRVYTYKYFKKEEEKLFLAPISDSDEFYNTIQIKEYDEQPTYSCQLLFKKDEESTDEIGLIGIHRFYESGIVFEEYKDYFCISKWYLKEVKRKPYNLKLGCNWQFIPKDEGWTE
[2]
  Kd: 20 nM and 90 nM

B2: Botulinum neurotoxin type B (natural protein)
chain: MPVTINNFNYNDPIDNNNIIMMEPPFARGTGRYYKAFKITDRIWIIPERYTFGYKPEDFNKSSGIFNRDVCEYYDPDYLNTNDKKNIFLQTMIKLFNRIKSKPLGEKLLEMIINGIPYLGDRRVPLEEFNTNIASVTVNKLISNPGEVERKKGIFANLIIFGPGPVLNENETIDIGIQNHFASREGFGGIMQMKFCPEYVSVFNNVQENKGASIFNRRGYFSDPALILMHELIHVLHGLYGIKVDDLPIVPNEKKFFMQSTDAIQAEELYTFGGQDPSIITPSTDKSIYDKVLQNFRGIVDRLNKVLVCISDPNININIYKNKFKDKYKFVEDSEGKYSIDVESFDKLYKSLMFGFTETNIAENYKIKTRASYFSDSLPPVKIKNLLDNEIYTIEEGFNISDKDMEKEYRGQNKAINKQAYEEISKEHLAVYKIQMCKSVKAPGICIDVDNEDLFFIADKNSFSDDLSKNERIEYNTQSNYIENDFPINELILDTDLISKIELPSENTESLTDFNVDVPVYEKQPAIKKIFTDENTIFQYLYSQTFPLDIRDISLTSSFDDALLFSNKVYSFFSMDYIKTANKVVEAGLFAGWVKQIVNDFVIEANKSNTMDKIADISLIVPYIGLALNVGNETAKGNFENAFEIAGASILLEFIPELLIPVVGAFLLESYIDNKNKIIKTIDNALTKRNEKWSDMYGLIVAQWLSTVNTQFYTIKEGMYKALNYQAQALEEIIKYRYNIYSEKEKSNINIDFNDINSKLNEGINQAIDNINNFINGCSVSYLMKKMIPLAVEKLLDFDNTLKKNLLNYIDENKLYLIGSAEYEKSKVNKYLKTIMPFDLSIYTNDTILIEMFNKYNSEILNNIILNLRYKDNNLIDLSGYGAKVEVYDGVELNDKNQFKLTSSANSKIRVTQNQNIIFNSVFLDFSVSFWIRIPKYKNDGIQNYIHNEYTIINCMKNNSGWKISIRGNRIIWTLIDINGKTKSVFFEYNIREDISEYINRWFFVTITNNLNNAKIYINGKLESNTDIKDIREVIANGEIIFKLDGDIDRTQFIWMKYFSIFNTELSQSNIEERYKIQSYSEYLKDFWGNPLMYNKEYYMFNAGNKNSYIKLKKDSPVGEILTRSKYNQNSKYINYRDLYIGEKFIIRRKSNSQSINDDIVRKEDYIYLDFFNLNQEWRVYTYKYFKKEEEKLFLAPISDSDEFYNTIQIKEYDEQPTYSCQLLFKKDEESTDEIGLIGIHRFYESGIVFEEYKDYFCISKWYLKEVKRKPYNLKLGCNWQFIPKDEGWTE
[3]
  KD of the first, rapid step (2:1 heterogeneous ligand model): 90 nM
  KD of the second, slow step (2:1 heterogeneous ligand model): 20 nM
